± gives the uncertainty stated by the source.
Test: protein stability index of a GFP-peptide fusion (yeast GPS) (PSI 1-4); higher = more stable; sorted into four equal gates, so the index is relative within each strain
Summary of the method: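 Mid-log yeast cultures in leucine-free medium, carrying a pooled plasmid library, were sorted into four equal gates by their GFP/Cherry fluorescence ratio. Each plasmid expressed Cherry along with GFP fused upstream of a tiled 17-residue yeast protein peptide. Plasmids recovered from each gate were PCR-amplified and Illumina-sequenced, with reads assigned to strains by barcodes. The protein stability index was obtained by summing each gate's read frequency weighted by its gate number.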

NILALNLVSLLIIVTRK [YML031W/NDC1]
protein stability index (doa10∆): 1.92 ± 0.072
protein stability index (pdr5∆): 1.35 ± 0.044
protein stability index (san1∆): 1.2 ± 0.11
protein stability index (ubr1∆): 1.32 ± 0.039

NILTTHLSHPGTNKDMI [ECM29]
protein stability index (doa10∆): 2.61 ± 0.073
protein stability index (pdr5∆): 2.2 ± 0.067
protein stability index (san1∆): 2.15 ± 0.09
protein stability index (ubr1∆): 2.05 ± 0.044

NINFASGVKNDILQSLS [CDC53]
protein stability index (doa10∆): 2.11 ± 0.066
protein stability index (pdr5∆): 2.39 ± 0.045
protein stability index (san1∆): 1.65 ± 0.053
protein stability index (ubr1∆): 1.66 ± 0.045

NIPRRELKINLPLTEHK [SRB4]
protein stability index (doa10∆): 2.93 ± 0.094
protein stability index (pdr5∆): 2.66 ± 0.072
protein stability index (san1∆): 3.23 ± 0.058
protein stability index (ubr1∆): 3.03 ± 0.12

NIVKQNEGIDLDTYRER [SMC2]
protein stability index (doa10∆): 3.13 ± 0.13
protein stability index (pdr5∆): 3.51 ± 0.12
protein stability index (san1∆): 3.24 ± 0.079
protein stability index (ubr1∆): 3.41 ± 0.086

NKANIQALIHGLNRHYY [RPN11]
protein stability index (doa10∆): 2.12 ± 0.082
protein stability index (pdr5∆): 2.52 ± 0.073
protein stability index (san1∆): 2.21 ± 0.095
protein stability index (ubr1∆): 2.37 ± 0.073

NKDASLALQRGATVFVN [DPB4]
protein stability index (doa10∆): 2.61 ± 0.099
protein stability index (pdr5∆): 2.29 ± 0.072
protein stability index (san1∆): 2.88 ± 0.067
protein stability index (ubr1∆): 2.32 ± 0.083

NKDLSELVIRLEKDAAD [YIL149C/MLP2]
protein stability index (doa10∆): 3.05 ± 0.078
protein stability index (pdr5∆): 3.15 ± 0.084
protein stability index (san1∆): 3.2 ± 0.061
protein stability index (ubr1∆): 3.15 ± 0.069

NKELPINHTILGKLQDV [RPN8]
protein stability index (doa10∆): 2.62 ± 0.051
protein stability index (pdr5∆): 2.69 ± 0.068
protein stability index (san1∆): 2.5 ± 0.064
protein stability index (ubr1∆): 2.67 ± 0.049

NKENDNVPSTKFNAAPE [SNF12]
protein stability index (doa10∆): 3.38 ± 0.055
protein stability index (pdr5∆): 3.36 ± 0.068
protein stability index (san1∆): 3.17 ± 0.06
protein stability index (ubr1∆): 3.14 ± 0.056

NKEYTLVHGIFGAKMSR [SIN4]
protein stability index (doa10∆): 2.75 ± 0.12
protein stability index (pdr5∆): 2.98 ± 0.13
protein stability index (san1∆): 3.15 ± 0.19
protein stability index (ubr1∆): 3.09 ± 0.11

NKKIGKRPPEIMSTEAH [SIR4]
protein stability index (doa10∆): 3.09 ± 0.12
protein stability index (pdr5∆): 3.27 ± 0.17
protein stability index (san1∆): 3.04 ± 0.09
protein stability index (ubr1∆): 3.22 ± 0.088

NKKSEQALDISKKGKPT [SRP72]
protein stability index (doa10∆): 3.1 ± 0.1
protein stability index (pdr5∆): 3.02 ± 0.071
protein stability index (san1∆): 2.81 ± 0.061
protein stability index (ubr1∆): 3.04 ± 0.073

NKLDEYHGLYTNYEMSY [LIN1]
protein stability index (doa10∆): 1.56 ± 0.065
protein stability index (pdr5∆): 1.78 ± 0.059
protein stability index (san1∆): 1.78 ± 0.093
protein stability index (ubr1∆): 1.6 ± 0.068

NKLMEKDFQVNKEIKPY [SIR4]
protein stability index (doa10∆): 3.35 ± 0.059
protein stability index (pdr5∆): 3.38 ± 0.054
protein stability index (san1∆): 3.12 ± 0.059
protein stability index (ubr1∆): 3.28 ± 0.047

NKLRQQAIAKNNPQVVN [SNF5]
protein stability index (doa10∆): 1.54 ± 0.035
protein stability index (pdr5∆): 1.94 ± 0.042
protein stability index (san1∆): 1.81 ± 0.049
protein stability index (ubr1∆): 1.65 ± 0.03

NKNGENKKIGKRPPEIM [SIR4]
protein stability index (doa10∆): 3.09 ± 0.12
protein stability index (pdr5∆): 3.21 ± 0.11
protein stability index (san1∆): 3.28 ± 0.14
protein stability index (ubr1∆): 3.28 ± 0.091

NKNLPFVWLSSEENIGS [SWI1]
protein stability index (doa10∆): 2.9 ± 0.067
protein stability index (pdr5∆): 1.84 ± 0.072
protein stability index (san1∆): 1.59 ± 0.063
protein stability index (ubr1∆): 1.74 ± 0.053

NKRLSRGKKGLKKKVVD [RPS1B]
protein stability index (pdr5∆): 3.44 ± 0.15
protein stability index (san1∆): 2.75 ± 0.24
protein stability index (ubr1∆): 3.38 ± 0.14

NKTLTLDLKECYQFAEY [ARP7]
protein stability index (doa10∆): 1.96 ± 0.089
protein stability index (pdr5∆): 2.3 ± 0.072
protein stability index (san1∆): 1.9 ± 0.17
protein stability index (ubr1∆): 2.69 ± 0.1

NKTVNEAAKPSLSFGSG [YJL041W/NSP1]
protein stability index (doa10∆): 3.5 ± 0.13
protein stability index (pdr5∆): 3.01 ± 0.083
protein stability index (san1∆): 2.08 ± 0.21
protein stability index (ubr1∆): 3.21 ± 0.078

NLATKGMVKLNEYPVAD [REC8]
protein stability index (doa10∆): 2.85 ± 0.071
protein stability index (pdr5∆): 1.52 ± 0.05
protein stability index (san1∆): 1.46 ± 0.074
protein stability index (ubr1∆): 1.57 ± 0.058

NLEFNYTKPYPNFEASF [SMC2]
protein stability index (doa10∆): 2.76 ± 0.09
protein stability index (pdr5∆): 2.21 ± 0.1
protein stability index (san1∆): 2.43 ± 0.15
protein stability index (ubr1∆): 2.74 ± 0.13

NLEKNYLAKLSKQLSLE [IRR1]
protein stability index (doa10∆): 3.19 ± 0.14
protein stability index (pdr5∆): 3.34 ± 0.12
protein stability index (san1∆): 2.55 ± 0.13
protein stability index (ubr1∆): 3.14 ± 0.084

NLEQINEDLEDGHYIEE [REC8]
protein stability index (doa10∆): 2.93 ± 0.088
protein stability index (san1∆): 2.98 ± 0.16
protein stability index (ubr1∆): 3.2 ± 0.088

NLIGVITHQGANSESGH [UBP6]
protein stability index (doa10∆): 2.33 ± 0.12
protein stability index (pdr5∆): 3 ± 0.091
protein stability index (san1∆): 3.22 ± 0.069
protein stability index (ubr1∆): 3.07 ± 0.085

NLLKVSVDICNNSKSRY [ECM29]
protein stability index (doa10∆): 2.04 ± 0.07
protein stability index (pdr5∆): 2.2 ± 0.066
protein stability index (san1∆): 2.9 ± 0.052
protein stability index (ubr1∆): 2.02 ± 0.054

NLLLSASRDKTLISWKL [ASC1]
protein stability index (doa10∆): 2.59 ± 0.071
protein stability index (pdr5∆): 2.79 ± 0.06
protein stability index (san1∆): 3.21 ± 0.05
protein stability index (ubr1∆): 2.2 ± 0.069

NLLQISAAELERLDKDK [SNF5]
protein stability index (doa10∆): 2.5 ± 0.12
protein stability index (pdr5∆): 2.89 ± 0.13
protein stability index (san1∆): 2.91 ± 0.18

NLLTPQPTNFTTKRLWS [MCD1]
protein stability index (doa10∆): 2.79 ± 0.074
protein stability index (pdr5∆): 2.79 ± 0.063
protein stability index (san1∆): 2.73 ± 0.064
protein stability index (ubr1∆): 2.85 ± 0.065

NLNAFVDFSKYNTNFNL [SRP72]
protein stability index (doa10∆): 3.19 ± 0.12
protein stability index (pdr5∆): 2.81 ± 0.12
protein stability index (san1∆): 3.09 ± 0.048
protein stability index (ubr1∆): 2.17 ± 0.08

NLQTFTHEQWSNIQRNV [SRP72]
protein stability index (doa10∆): 2.86 ± 0.065
protein stability index (pdr5∆): 3 ± 0.064
protein stability index (san1∆): 3.01 ± 0.058
protein stability index (ubr1∆): 2.93 ± 0.046

NLRRHSDIVLDKKVTLI [SIN4]
protein stability index (doa10∆): 2.47 ± 0.05
protein stability index (pdr5∆): 3.05 ± 0.042
protein stability index (san1∆): 2.87 ± 0.034
protein stability index (ubr1∆): 2.68 ± 0.038

NLSSNVNFTEIGGLIPQ [YCS4]
protein stability index (doa10∆): 2.77 ± 0.071
protein stability index (pdr5∆): 2.46 ± 0.073
protein stability index (san1∆): 2.49 ± 0.08
protein stability index (ubr1∆): 2.47 ± 0.059

NLYDDVKCWSKFIEKFQ [MED1]
protein stability index (pdr5∆): 3.07 ± 0.11
protein stability index (san1∆): 3.27 ± 0.14
protein stability index (ubr1∆): 3.58 ± 0.29

NLYMLVTTCVYLACKVE [SSN8]
protein stability index (san1∆): 1.62 ± 0.25

NMGSLLGLCLVIQIVTG [COB]
protein stability index (doa10∆): 2.67 ± 0.06
protein stability index (pdr5∆): 2.58 ± 0.053
protein stability index (san1∆): 2.59 ± 0.061
protein stability index (ubr1∆): 3 ± 0.034

NMKVTILHGSKSQEQRE [PRP28]
protein stability index (doa10∆): 3.42 ± 0.093
protein stability index (pdr5∆): 3.31 ± 0.15
protein stability index (san1∆): 3.25 ± 0.046
protein stability index (ubr1∆): 3.35 ± 0.06

NMMNQVGEEETSQKMKK [SRP54]
protein stability index (doa10∆): 3.33 ± 0.11
protein stability index (pdr5∆): 3.39 ± 0.12
protein stability index (san1∆): 3.33 ± 0.076
protein stability index (ubr1∆): 3.23 ± 0.079

NMNLNPQMFLNQQAQAR [GAL11]
protein stability index (doa10∆): 1.92 ± 0.035
protein stability index (pdr5∆): 2.42 ± 0.035
protein stability index (san1∆): 2.37 ± 0.056
protein stability index (ubr1∆): 2.04 ± 0.03

NNFRESDIIILKGEIED [SIR4]
protein stability index (doa10∆): 3.05 ± 0.18
protein stability index (pdr5∆): 2.12 ± 0.091
protein stability index (san1∆): 2.32 ± 0.13
protein stability index (ubr1∆): 2.93 ± 0.13

NNIVSVLTAGVNSVAIK [RPN11]
protein stability index (doa10∆): 2.28 ± 0.075
protein stability index (pdr5∆): 2.26 ± 0.087
protein stability index (san1∆): 2.66 ± 0.078
protein stability index (ubr1∆): 1.97 ± 0.058

NNNINENELFNDRKQTT [SSN2]
protein stability index (doa10∆): 2.71 ± 0.12
protein stability index (pdr5∆): 3.09 ± 0.1
protein stability index (san1∆): 2.87 ± 0.1
protein stability index (ubr1∆): 2.78 ± 0.14

NNNNAPIIIYGTENTER [YOR098C/NUP1]
protein stability index (doa10∆): 2.62 ± 0.054
protein stability index (pdr5∆): 2.69 ± 0.06
protein stability index (san1∆): 2.83 ± 0.045
protein stability index (ubr1∆): 2.74 ± 0.039

NNNNNNNNNNNNDDNGN [MED2]
protein stability index (doa10∆): 3.09 ± 0.038
protein stability index (pdr5∆): 2.94 ± 0.033
protein stability index (san1∆): 3.227 ± 0.029
protein stability index (ubr1∆): 3.23 ± 0.034

NNSNSNNNSSNEKEQLS [SEC65]
protein stability index (doa10∆): 2.77 ± 0.041
protein stability index (pdr5∆): 2.72 ± 0.041
protein stability index (san1∆): 2.79 ± 0.031
protein stability index (ubr1∆): 2.76 ± 0.035

NNVNEYSYTTIVLSDQT [YJL039C/NUP192]
protein stability index (doa10∆): 3.11 ± 0.059
protein stability index (pdr5∆): 3.14 ± 0.066
protein stability index (san1∆): 3.09 ± 0.045
protein stability index (ubr1∆): 2.93 ± 0.044

NNYDDFMLSDDEGMESI [RRI2]
protein stability index (doa10∆): 2.54 ± 0.26
protein stability index (pdr5∆): 3.71 ± 0.19
protein stability index (san1∆): 3.37 ± 0.18

NNYPNVELTYSLNNSDS [BRR2]
protein stability index (doa10∆): 2.99 ± 0.14
protein stability index (pdr5∆): 2.42 ± 0.18

NPHDTLNRIKKYLLTQR [PRP8]
protein stability index (doa10∆): 2.22 ± 0.095
protein stability index (pdr5∆): 2.14 ± 0.08
protein stability index (san1∆): 2.25 ± 0.11
protein stability index (ubr1∆): 2.27 ± 0.15

NPLMYSGGNNTATIINN [PCI8]
protein stability index (doa10∆): 2.93 ± 0.064
protein stability index (pdr5∆): 2.9 ± 0.057
protein stability index (san1∆): 3.12 ± 0.05
protein stability index (ubr1∆): 3.11 ± 0.045

NQFKRIDTLLYLMTYPQ [RET1]
protein stability index (doa10∆): 1.4 ± 0.1
protein stability index (pdr5∆): 1.44 ± 0.11
protein stability index (san1∆): 1.48 ± 0.14
protein stability index (ubr1∆): 1.55 ± 0.067
